According to paper doi:10.1101/2022.06.09.495453, “Molecular insights into human Shieldin complex assembly and recruitment to DSBs” (bioRxiv, 2022):

Legend:
MBP-REV7^WT = target: T1, MBP-REV7^WT (human, UniProt Q9UI95 1-211); assay: pull-down; MBP pull-down of GST-SHLD3^1-83 with MBP-REV7^WT or MBP-REV7^core; conditions: both partners purified
T1 construct: REV7 (MAD2L2), human; 211 residues printed; wild type; source: E. coli LOBSTR, purified; not shown: hexahistidine-MBP, N-terminal, kept

REV7^WT = target: T2, REV7^WT (human, UniProt Q9UI95 1-211); assay: SPR; SHLD3^1-62 or REV3^1871-2014 immobilised on an SCR HC30M chip by EDC-NHS coupling; REV7^WT or REV7^R124A injected in two-fold dilutions; buffer B with 0.05% Tween 20; KD estimated from plateau values at the end of the dissociation phase; conditions: both partners purified
T2 construct: REV7 (MAD2L2), human, HORMA domain protein; 211 residues printed; wild type; also called WT-REV7; MAD2L2; source: E. coli LOBSTR, purified (metal chelating column, tag cleavage, SEC)

REV7^R124A [1] = target: T3, REV7^R124A (human, UniProt Q9UI95 1-211, R124A); assay: as above; conditions: both partners purified
T3 construct: REV7 (MAD2L2), human; 211 residues printed; R124A; also called R124A-REV7; source: E. coli LOBSTR, purified (metal chelating column, tag cleavage, SEC)

REV7^R124A [2] = target: REV7^R124A (human, UniProt Q9UI95 1-211, R124A); assay: SPR

T2 sequence (Q9UI95 whole entry, the tested form may be a part): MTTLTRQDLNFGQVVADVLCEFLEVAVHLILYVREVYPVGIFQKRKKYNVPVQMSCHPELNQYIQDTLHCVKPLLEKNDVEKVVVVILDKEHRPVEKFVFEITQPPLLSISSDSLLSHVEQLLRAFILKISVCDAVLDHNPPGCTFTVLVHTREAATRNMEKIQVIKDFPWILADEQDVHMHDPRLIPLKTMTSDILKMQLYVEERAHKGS
T1 sequence (Q9UI95 whole entry): as the sequence (Q9UI95 whole entry, the tested form may be a part) above

B1: GST-SHLD3^1-83 (domain or fragment, human, UniProt Q6ZNX1 1-83, looked up)
chain: MTTEVILHYRPCESDPTQLPKIAEKAIQDFPTRPLSRFIPWFPYDGSKLPLRPKRSPPVISEEAAEDVKQYLTISEHDAKSHS
notes: SHLD3, human, residues 1-83; also called SHLD3^RBM; source: E. coli LOBSTR, purified; not shown: GST, N-terminal, kept
Question: Does B1 bind (MBP-REV7^WT)?
Answer: Result: binds

B2: REV3^1871-2014 (domain or fragment, human, UniProt O60673 1871-2014, looked up)
chain: TPRTANILKPLMSPPSREEIMATLLDHDLSETIYQEPFCSNPSDVPEKPREIGGRLLMVETRLANDLAEFEGDFSLEGLRLWKTAFSAMTQNPRPGSPLRSGQGVVNKGSSNSPKMVEDKKIVIMPCKCAPSRQLVQVWLQAKE
notes: REV3, human, residues 1871-2014 (holds RBM1 1875-1896 and RBM2 1991-2012); The general protocol cleaves the tag; source: E. coli LOBSTR, purified
Question: Does B2 bind (REV7^WT)?
Answer: Result: binds

B3: SHLD3^1-62 (domain or fragment, human, UniProt Q6ZNX1 1-62, looked up)
chain: MTTEVILHYRPCESDPTQLPKIAEKAIQDFPTRPLSRFIPWFPYDGSKLPLRPKRSPPVISE
notes: SHLD3, human, residues 1-62; The general protocol cleaves the tag; also called SHLD3^RBM; source: E. coli LOBSTR, purified
Question: What does the source list for B3?
Answer: Kd (REV7^WT): ~38 nM; binding result (REV7^R124A [1]): binds; Kd (REV7^R124A [2]): ~67 nM
